From PMC3706368 come the findings set out here.

The target in this assay is V5-tagged cdN protein (human) (UniProt Q8TCD5).
Chain of UniProt Q8TCD5 (Q8TCD5 whole entry): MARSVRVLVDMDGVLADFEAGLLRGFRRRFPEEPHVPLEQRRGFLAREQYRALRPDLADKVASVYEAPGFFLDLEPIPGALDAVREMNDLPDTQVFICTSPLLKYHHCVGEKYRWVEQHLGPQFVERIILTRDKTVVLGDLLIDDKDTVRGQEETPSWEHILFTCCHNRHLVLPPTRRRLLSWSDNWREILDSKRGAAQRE

As to “myc-tagged full-length NS3/4A protein (natural protein)”, the 5'(3')-deoxyribonucleotidase activity (dephosphorylation of dUMP) in lysates of HuH7 cells with stable HCV NS3/4A expression, compared with cells with stable EGFP expression came out at 70%.
